Results: paper PMC12269843, “The molecular basis of T cell receptor recognition of citrullinated tenascin-C presented by HLA-DR4” (The Journal of Biological Chemistry, 2025)
Where no end group is shown, it is not given here. [ ]: non-standard residue; d: D form. Cit = NC(=O)NCCC[C@H](N)C(=O)O

How the values were obtained:
Assay in all cases: fluorescence polarisation; competition: serial dilution of peptide from 500 μM against 20 nM TAMRA-HA for 100 nM HLA-DRB1 protein with 20 nM HLA-DM; 100 mM trisodium citrate pH 5.4, 50 mM NaCl, 5 mM EDTA; 37 °C, read after 24, 48 and 72 h
[1] = target: HLA-DRB1*14:02 protein (human)
[2] = target: HLA-DRB1*04:01 protein (HLA-DRA*01:01/HLA-DRB1*04:01) (human)
[3] = target: HLA-DRB1*04:04 protein (human)
[4] = target: HLA-DRB1*04:05 protein (human)
[5] = target: HLA-DRB1*01:01 protein (human)

IC50 [1]: 1300 nM
IC50 [2]: 1100 nM
IC50 [3]: > 300000 nM
fold weaker affinity against HLA-DRB1*01:01, *04:01 and *14:02 [4]: > 4 fold
IC50 [5]: 800 nM
B1: TNC1014,1016cit peptide (peptide)
peptide: D[Cit]Y[Cit]LNYSLPTG
